{"source": "paper PMC2953525", "about": "“Subtle Alterations in PCNA-Partner Interactions Severely Impair DNA Replication and Repair” (PLoS Biology, 2010)", "key": {"Msh6 PIP peptide": {"test_system": "Msh6 PIP peptide", "experiment": "SPR analysis of PCNA binding to PIP peptide", "parameters": "species or system yeast", "conditions": "footnote d; PCNA immobilized on GLM chip, peptide 5-5,000 nM", "excerpt": "(§1) To quantify differences in binding affinities of the PCNA mutants relative to the WT, we characterized four PCNA mutants with increased affinity for PIP peptides derived from Rad30, Pol32, Msh6, and Ung1 partners using SPR. These mutants were overexpressed in E. coli, purified by affinity chromatography, and immobilized on an SPR sensor chip for binding characterization. SPR binding analysis enabled direct and sensitive measurement of interaction affinities relative to the Y2H system and indicated an up to 8-fold increase in binding affinity for the different PIP peptides, relative to WT PCNA (Table 1). Such analysis allowed the detection of a significant decrease in the Rad30 PIP peptide dissociation rate in the Pol30-Rad30E9p mutant relative to the WT, indicating a ∼9-fold increase in the lifetime of the PCNA-Rad30 complex (see Table 1). Collectively the ELISA, Y2H, and SPR assays validated and quantified the increase in mutant PCNA binding affinities, relative to WT PCNA.\n(§2) Protein interaction assays were carried out using the ProteOn XPR36 (Bio-Rad) instrument. WT or PCNA mutants (0.4 to 5.2 fmol) were immobilized on the surface of a GLM sensor chip by a carbodiimide-activated succinimide-coupling method, as specified by the manufacturer. All SPR experiments were performed by flowing 150 µl of the target peptide at a flow rate of 30 µl/min onto the PCNA-bound chip. Different concentrations (5–5,000 nM) of PIP peptides (Table 1) were injected over the PCNA chip, and binding parameters were determined using ProteOn XPR36 software (Bio-Rad). The ligand (PCNA) and analyte (peptide) buffers were PBST and 150 mM NaCl, 1 mM EDTA, 0.01% Tween-80, 30 mM Hepes, pH 7.5, respectively."}, "CAN1 gene": {"test_system": "CAN1 gene", "experiment": "Spontaneous mutation rate, CAN1 reporter assay, fluctuation analysis", "format": "cell-based, yeast", "conditions": "for Spontaneous Mutation Rate Can^R (Fold Increase): Table 1, compared to the WT POL30 strain", "excerpt": "It was previously shown that PCNA contains another site of regulation (i.e. K164) that is modulated by ubiquitination or SUMOylation (Figure 1B) and that is crucial for the recruitment of TLS polymerases,[37]. To test whether the K164 regulatory site is active in the PCNA mutant strains, we examined the spontaneous mutation rate in these strains (Table 1). Increase in spontaneous mutation rate can indicate the recruitment of TLS polymerases to PCNA through K164 ubiquitination,[37]. Alternatively, these mutants can indirectly affect the spontaneous mutation rate by reducing DNA replication processivity and causing replication fork stalling, thereby leading to TLS recruitment. These mutants can also indirectly alter Pol-δ or Pol-ε proofreading leading to TLS recruitment. We measured the spontaneous mutation rate using the CAN1 reporter assay by monitoring the ability of the PCNA mutant strains to grow in the presence of canavanine, a toxic analogue of arginine. […] To examine whether Polζ, the major TLS polymerase,[37], is recruited in vivo to PCNA mutants showing increased affinity for Rad27 and Pol32 (pol30-Rad27E6 and pol30-Pol32E5, Table 1) upon K164 ubiquitination, we measured the spontaneous mutation rates of these mutant strains on the background of either mutated rev3 encoding the catalytic subunit of Polζ or mutated rad18 encoding the K164 ubiquitin ligase or K164R mutation (Figure 7, Table 2).\nNovel haploids containing PCNA mutants were generated using the plasmid shuffling method. Briefly, a pol30::KanMX magic marker heterozygote diploid strain BY4743 (Open Biosystem) was transformed with plasmid pRS316-POL30. Following dissection of the diploid, a haploid containing the CAN+ gene and plasmid pRS316-POL30 as a sole source of PCNA was generated. This host strain was transformed with selected pRS315-pol30 mutants, plated on SC-Ura-Leu plates, followed by replica plating to SC-Leu+5FOA plates. Haploids, containing PCNA mutants as a sole source, were further verified by plating on either SC-Leu or SC-Ura plates. For testing selected PCNA mutants, a haploid containing rad27::HYG, rad30::HYG, pol32::HYG, msh6::HYG, or ung1::HYG were generated using plasmid pAG32 by conventional genetic approaches. Growth of the PCNA mutant strains in the presence of 120 mM HU (Toronto Research Chemicals) or 0.02% MMS (Sigma) was performed as described. To examine the effects of partner overexpression on pol30 mutant strains, these strains were transformed with various plasmids containing GST-tagged PCNA partner encoding genes under the control of a GAL1/10 inducible promoter, as previously described. Overnight cultures were plated in serial dilutions on SC-Ura containing either glucose or galactose with or without DNA-damaging agents, as described above.\nThe mutation rates for the different pol30 mutant strains described in this study were determined by fluctuation test analysis using the Lea and Coulson method,[48]. The different strains were plated as single colonies on SC-Leu plates and allowed to grow for 3 d at 30°C. At least 25 single colonies from each strain were excised from the plate and resuspended in 1 ml of sterile water to an O.D600 of 0.7. Appropriate dilutions of the cells were then plated on SC-Leu and SC-Leu-Arg+canavanine ([…]) to obtain the number of viable cells (Nt) and the number of canavanine-resistant cells (r), respectively. Using the Lea and Coulson method, the number of mutations (m) per colony was derived from the number of canavanine resistant-colonies (r) across parallel cultures, using the following equation: […]. The m values were then used to calculate the mutation rate, M, using the following equation: M = m/Nt, where Nt is the average number of viable cells per plating. The different M values were sorted to obtain the median. […]"}, "Pol32 PIP peptide": {"test_system": "Pol32 PIP peptide", "experiment": "SPR analysis of PCNA binding to PIP peptide", "parameters": "species or system yeast", "conditions": "footnote d; PCNA immobilized on GLM chip, peptide 5-5,000 nM", "excerpt": "as §1, §2"}, "Rad30 PIP peptide": {"test_system": "Rad30 PIP peptide", "experiment": "SPR analysis of PCNA binding to PIP peptide", "parameters": "species or system yeast", "excerpt": "as §1, §2"}}, "data": [{"molecule": "pol30-Msh6E6: PCNA mutant evolved for Msh6, IDCL sequence DYDKDLLKIIEL (protein, left off: Gal4 activation domain, end not stated, kept) MLEAKFEEASLFKRIIDGFKDCVQLVNFQCKEDGIIAQAVDDSRVLLVSLEIGVEAFQEYRCDHPVTLGMDLTSLSKILRCGNNTDTLTLIADNTPDSIILLFEDTKKDRIAEYSLKLMDYDKDLLKIIELQYDSTLSLPSSEFSKIVRDLSQLSDSINIMITKETIKFVADGDIGSGSVIIKPFVDMEHPETSIKLEMDQPVDLTFGAKYLLDIIKGSSLSDRVGIRLSSEAPALFQFDLKSGFLQFFLAPKFNDEE", "values": [{"measurement": "Fold increase in binding affinity for Msh6 PIP peptide relative to WT PCNA (SPR)", "setting": "Msh6 PIP peptide", "result": 1.6, "unit": "fold"}, {"measurement": "Spontaneous Mutation Rate Can^R (Fold Increase)", "setting": "CAN1 gene", "result": 4.1, "unit": "fold"}]}, {"molecule": "pol30-79: previously studied PCNA mutant with decreased partner binding, IDCL sequence DIDADFAKAEEL (protein, left off: Gal4 activation domain, end not stated, kept) MLEAKFEEASLFKRIIDGFKDCVQLVNFQCKEDGIIAQAVDDSRVLLVSLEIGVEAFQEYRCDHPVTLGMDLTSLSKILRCGNNTDTLTLIADNTPDSIILLFEDTKKDRIAEYSLKLMDIDADFAKAEELQYDSTLSLPSSEFSKIVRDLSQLSDSINIMITKETIKFVADGDIGSGSVIIKPFVDMEHPETSIKLEMDQPVDLTFGAKYLLDIIKGSSLSDRVGIRLSSEAPALFQFDLKSGFLQFFLAPKFNDEE", "values": [{"measurement": "Spontaneous Mutation Rate Can^R (Fold Increase)", "setting": "CAN1 gene", "result": 2.2, "unit": "fold"}]}, {"molecule": "pol30-Rad27E6: PCNA mutant evolved for Rad27, IDCL sequence DGDYDILKIREL (protein, left off: Gal4 activation domain, end not stated, kept) MLEAKFEEASLFKRIIDGFKDCVQLVNFQCKEDGIIAQAVDDSRVLLVSLEIGVEAFQEYRCDHPVTLGMDLTSLSKILRCGNNTDTLTLIADNTPDSIILLFEDTKKDRIAEYSLKLMDGDYDILKIRELQYDSTLSLPSSEFSKIVRDLSQLSDSINIMITKETIKFVADGDIGSGSVIIKPFVDMEHPETSIKLEMDQPVDLTFGAKYLLDIIKGSSLSDRVGIRLSSEAPALFQFDLKSGFLQFFLAPKFNDEE", "values": [{"measurement": "Spontaneous Mutation Rate Can^R (Fold Increase)", "setting": "CAN1 gene", "result": 8, "unit": "fold"}, {"measurement": "Mutation Rate (CAN1 locus)", "setting": "CAN1 gene; Table 2, median, brackets = 95% confidence interval, at least 25 independent determinations", "result": "1.2×10^−6 [8.0, 13.9]"}]}, {"molecule": "pol30-Pol32E5: PCNA mutant evolved for Pol32, IDCL sequence DADNDFLKISEL (protein, left off: Gal4 activation domain, end not stated, kept) MLEAKFEEASLFKRIIDGFKDCVQLVNFQCKEDGIIAQAVDDSRVLLVSLEIGVEAFQEYRCDHPVTLGMDLTSLSKILRCGNNTDTLTLIADNTPDSIILLFEDTKKDRIAEYSLKLMDADNDFLKISELQYDSTLSLPSSEFSKIVRDLSQLSDSINIMITKETIKFVADGDIGSGSVIIKPFVDMEHPETSIKLEMDQPVDLTFGAKYLLDIIKGSSLSDRVGIRLSSEAPALFQFDLKSGFLQFFLAPKFNDEE", "values": [{"measurement": "Spontaneous Mutation Rate Can^R (Fold Increase)", "setting": "CAN1 gene", "result": 13.3, "unit": "fold"}, {"measurement": "Fold Increase Relative to WT (mutation rate, CAN1 locus)", "setting": "CAN1 gene; Table 2", "result": 13, "unit": "fold"}]}, {"molecule": "pol30-Pol32E9 (protein, left off: Gal4 activation domain, end not stated, kept) MLEAKFEEASLFKRIIDGFKDCVQLVNFQCKEDGIIAQAVDDSRVLLVSLEIGVEAFQEYRCDHPVTLGMDLTSLSKILRCGNNTDTLTLIADNTPDSIILLFEDTKKDRIAEYSLKLMDNDVDSLKIIELQYDSTLSLPSSEFSKIVRDLSQLSDSINIMITKETIKFVADGDIGSGSVIIKPFVDMEHPETSIKLEMDQPVDLTFGAKYLLDIIKGSSLSDRVGIRLSSEAPALFQFDLKSGFLQFFLAPKFNDEE", "values": [{"measurement": "Fold increase in binding affinity for Pol32 PIP peptide relative to WT PCNA (SPR)", "setting": "Pol32 PIP peptide", "result": 2, "unit": "fold"}, {"measurement": "Spontaneous Mutation Rate Can^R (Fold Increase)", "setting": "CAN1 gene", "result": 4, "unit": "fold"}]}, {"molecule": "pol30-Rad30E2: PCNA mutant evolved for Rad30, IDCL sequence DDDWDFLKILEL (protein, left off: Gal4 activation domain, end not stated, kept) MLEAKFEEASLFKRIIDGFKDCVQLVNFQCKEDGIIAQAVDDSRVLLVSLEIGVEAFQEYRCDHPVTLGMDLTSLSKILRCGNNTDTLTLIADNTPDSIILLFEDTKKDRIAEYSLKLMDDDWDFLKILELQYDSTLSLPSSEFSKIVRDLSQLSDSINIMITKETIKFVADGDIGSGSVIIKPFVDMEHPETSIKLEMDQPVDLTFGAKYLLDIIKGSSLSDRVGIRLSSEAPALFQFDLKSGFLQFFLAPKFNDEE", "values": [{"measurement": "Spontaneous Mutation Rate Can^R (Fold Increase)", "setting": "CAN1 gene", "result": 10, "unit": "fold"}]}, {"molecule": "pol30-Msh6E2: PCNA mutant evolved for Msh6, IDCL sequence DYDRDMLKISEL (protein, left off: Gal4 activation domain, end not stated, kept) MLEAKFEEASLFKRIIDGFKDCVQLVNFQCKEDGIIAQAVDDSRVLLVSLEIGVEAFQEYRCDHPVTLGMDLTSLSKILRCGNNTDTLTLIADNTPDSIILLFEDTKKDRIAEYSLKLMDYDRDMLKISELQYDSTLSLPSSEFSKIVRDLSQLSDSINIMITKETIKFVADGDIGSGSVIIKPFVDMEHPETSIKLEMDQPVDLTFGAKYLLDIIKGSSLSDRVGIRLSSEAPALFQFDLKSGFLQFFLAPKFNDEE", "values": [{"measurement": "effect of msh6 deletion on spontaneous mutation rate", "setting": "CAN1 gene; Figure 6D", "result": "Suppression"}, {"measurement": "Spontaneous Mutation Rate Can^R (Fold Increase)", "setting": "CAN1 gene", "result": 7.3, "unit": "fold"}]}, {"molecule": "pol30-Rad30E9: PCNA mutant evolved for Rad30, IDCL sequence DNDWDFLKIDEL (protein, left off: Gal4 activation domain, end not stated, kept) MLEAKFEEASLFKRIIDGFKDCVQLVNFQCKEDGIIAQAVDDSRVLLVSLEIGVEAFQEYRCDHPVTLGMDLTSLSKILRCGNNTDTLTLIADNTPDSIILLFEDTKKDRIAEYSLKLMDNDWDFLKIDELQYDSTLSLPSSEFSKIVRDLSQLSDSINIMITKETIKFVADGDIGSGSVIIKPFVDMEHPETSIKLEMDQPVDLTFGAKYLLDIIKGSSLSDRVGIRLSSEAPALFQFDLKSGFLQFFLAPKFNDEE", "values": [{"measurement": "off-rate (kd) of the Rad30 PIP peptide", "setting": "Rad30 PIP peptide; SPR", "result": 0.00321, "unit": "s⁻¹"}, {"measurement": "fold increase in the lifetime of the PCNA-Rad30 complex", "setting": "Rad30 PIP peptide; SPR, from Rad30 PIP peptide dissociation rate, relative to the WT", "result": "~9", "unit": "fold"}, {"measurement": "Fold increase in binding affinity for Rad30 PIP peptide relative to WT PCNA (SPR)", "setting": "Rad30 PIP peptide; footnote d, PCNA immobilized on GLM chip, peptide 5-5,000 nM", "result": 8.5, "unit": "fold"}, {"measurement": "Spontaneous Mutation Rate Can^R (Fold Increase)", "setting": "CAN1 gene", "result": 15.3, "unit": "fold"}]}]}
